From the supplement of paper PMC11246515
± gives the standard deviation of the averaged measurements.

Assay: total protein half-life in vivo (active degradation + dilution); higher = more stable protein
[1] = E. coli NCM3722 delta-clpP delta-lon delta-hslV, growth: N-lim chemostat, doubling time 6 h
[2] = E. coli NCM3722 delta-clpP, growth: N-lim chemostat, doubling time 6 h
[3] = E. coli NCM3722 delta-hslV, growth: N-lim chemostat, doubling time 6 h
[4] = E. coli NCM3722 delta-smpB, growth: N-lim chemostat, doubling time 6 h
[5] = wild type E. coli NCM3722, growth: C-lim chemostat, doubling time 3 h
[6] = wild type E. coli NCM3722, growth: C-lim chemostat, doubling time 6 h
[7] = wild type E. coli NCM3722, growth: C-lim chemostat, doubling time 12 h
[8] = wild type E. coli NCM3722, growth: N-lim chemostat, doubling time 6 h
[9] = wild type E. coli NCM3722, growth: N-lim chemostat, doubling time 12 h
[10] = wild type E. coli NCM3722, growth: P-lim chemostat, doubling time 6 h
[11] = wild type E. coli NCM3722, growth: P-lim chemostat, doubling time 12 h
[12] = E. coli NCM3722 delta-lon, growth: N-lim chemostat, doubling time 6 h

MIIKRTPQAASPLASWLSYLENLHSKTIDLGLERVSLVAARLGVLKPAPFVFTVAGTNGKGTTCRTLESILMAAGYKVGVYSSPHLVRYTERVRVQGQELPESAHTASFAEIESARGDISLTYFEYGTLSALWLFKQAQLDVVILEVGLGGRLDATNIVDADVAVVTSIALDHTDWLGPDRESIGREKAGIFRSEKPAIVGEPEMPSTIADVAQEKGALLQRRGVEWNYSVTDHDWAFSDAHGTLENLPLPLVPQPNAATALAALRASGLEVSENAIRDGIASAILPGRFQIVSESPRVIFDVAHNPHAAEYLTGRMKALPKNGRVLAVIGMLHDKDIAGTLAWLKSVVDDWYCAPLEGPRGATAEQLLEHLGNGKSFDSVAQAWDAAMADAKAEDTVLVCGSFHTVAHVMEVIDARRSGGK
total protein half-life in vivo [1]: 4.62 ± 0.55 h
total protein half-life in vivo [2]: 4.95 ± 1.1 h
total protein half-life in vivo [3]: 4.08 ± 0.39 h
total protein half-life in vivo [4]: 3.813 ± 0.021 h
total protein half-life in vivo [5]: 3.151 ± 0.024 h
total protein half-life in vivo [6]: 5.09 ± 0.13 h
total protein half-life in vivo [7]: 9.2 ± 1.6 h
total protein half-life in vivo [8]: 3.807 ± 0.036 h
total protein half-life in vivo [9]: 6.07 ± 0.99 h
total protein half-life in vivo [10]: 5.34 ± 0.23 h
total protein half-life in vivo [11]: 9.6 ± 0.66 h

MMKNILAIQSHVVYGHAGNSAAEFPMRRLGANVWPLNTVQFSNHTQYGKWTGCVMPPSHLTEIVQGIAAIDKLHTCDAVLSGYLGSAEQGEHILGIVRQVKAANPQAKYFCDPVMGHPEKGCIVAPGVAEFHVRHGLPASDIIAPNLVELEILCEHAVNNVEEAVLAARELIAQGPQIVLVKHLARAGYSRDRFEMLLVTADEAWHISRPLVDFGMRQPVGVGDVTSGLLLVKLLQGATLQEALEHVTAAVYEIMVTTKAMQEYELQVVAAQDRIAKPEHYFSATKL
total protein half-life in vivo [3]: 2.01 ± 0.45 h
total protein half-life in vivo [12]: 1.63 ± 0.039 h
total protein half-life in vivo [4]: 1.73 h
total protein half-life in vivo [5]: 2.89 ± 0.033 h
total protein half-life in vivo [6]: 5 ± 1.8 h
total protein half-life in vivo [7]: 5.86 ± 0.53 h
total protein half-life in vivo [8]: 1.832 ± 0.0067 h
total protein half-life in vivo [9]: 2.45 h
total protein half-life in vivo [10]: 4.49 ± 0.085 h
total protein half-life in vivo [11]: 8.09 ± 0.6 h

MHEIFNMLLAVFDRAALMLICLFFLIRIRLFRELLHKSAHSPKELLAVTAIFSLFALFSTWSGVPVEGSLVNVRIIAVMSGGILFGPWVGIITGVIAGIHRYLIDIGGVTAIPCFITSILAGCISGWINLKIPKAQRWRVGILGGMLCETLTMILVIVWAPTTALGIDIVSKIGIPMILGSVCIGFIVLLVQSVEGEKEASAARQAKLALDIANKTLPLFRHVNSESLRKVCEIIRDDIHADAVAITNTDHVLAYVGVGEHNYQNGDDFISPTTRQAMNYGKIIIKNNDEAHRTPEIHSMLVIPLWEKGVVTGTLKIYYCHAHQITSSLQEMAVGLSQIISTQLEVSRAEQLREMANKAELRALQSKINPHFLFNALNAISSSIRLNPDTARQLIFNLSRYLRYNIELKDDEQIDIKKELYQIKDYIAIEQARFGDKLTVIYDIDEEVNCCIPSLLIQPLVENAIVHGIQPCKGKGVVTISVAECGNRVRIAVRDTGHGIDPKVIERVEANEMPGNKIGLLNVHHRVKLLYGEGLHIRRLEPGTEIAFYIPNQRTPVASQATLLL [P0AA93]
total protein half-life in vivo [1]: 6.72 h
total protein half-life in vivo [2]: 6.87 ± 0.77 h
total protein half-life in vivo [3]: 6.53 ± 0.56 h
total protein half-life in vivo [4]: 5.52 ± 0.31 h
total protein half-life in vivo [5]: 2.84 ± 0.064 h
total protein half-life in vivo [8]: 5.53 ± 0.67 h
total protein half-life in vivo [11]: 14.8 ± 0.34 h

MNLLKSLAAVSSMTMFSRVLGFARDAIVARIFGAGMATDAFFVAFKLPNLLRRIFAEGAFSQAFVPILAEYKSKQGEDATRVFVSYVSGLLTLALAVVTVAGMLAAPWVIMVTAPGFADTADKFALTSQLLKITFPYILLISLASLVGAILNTWNRFSIPAFAPTLLNISMIGFALFAAPYFNPPVLALAWAVTVGGVLQLVYQLPHLKKIGMLVLPRINFHDAGAMRVVKQMGPAILGVSVSQISLIINTIFASFLASGSVSWMYYADRLMEFPSGVLGVALGTILLPSLSKSFASGNHDEYNRLMDWGLRLCFLLALPSAVALGILSGPLTVSLFQYGKFTAFDALMTQRALIAYSVGLIGLIVVKVLAPGFYSRQDIKTPVKIAIVTLILTQLMNLAFIGPLKHAGLSLSIGLAACLNASLLYWQLRKQKIFTPQPGWMAFLLRLVVAVLVMSGVLLGMLHIMPEWSLGTMPWRLLRLMAVVLAGIAAYFAALAVLGFKVKEFARRTV [P0AF16]
total protein half-life in vivo [1]: 6.51 ± 0.41 h
total protein half-life in vivo [2]: 5.82 ± 0.39 h
total protein half-life in vivo [3]: 5.87 h
total protein half-life in vivo [4]: 6.21 ± 0.26 h
total protein half-life in vivo [5]: 3.36 h
total protein half-life in vivo [7]: 9.84 h
total protein half-life in vivo [9]: 8.94 ± 1.4 h
total protein half-life in vivo [10]: 5.63 ± 0.54 h
total protein half-life in vivo [11]: 10.6 ± 0.34 h

MSTPDNHGKKAPQFAAFKPLTTVQNANDCCCDGACSSTPTLSENVSGTRYSWKVSGMDCAACARKVENAVRQLAGVNQVQVLFATEKLVVDADNDIRAQVESALQKAGYSLRDEQAAEEPQASRLKENLPLITLIVMMAISWGLEQFNHPFGQLAFIATTLVGLYPIARQALRLIKSGSYFAIETLMSVAAIGALFIGATAEAAMVLLLFLIGERLEGWAASRARQGVSALMALKPETATRLRKGEREEVAINSLRPGDVIEVAAGGRLPADGKLLSPFASFDESALTGESIPVERATGDKVPAGATSVDRLVTLEVLSEPGASAIDRILKLIEEAEERRAPIERFIDRFSRIYTPAIMAVALLVTLVPPLLFAASWQEWIYKGLTLLLIGCPCALVISTPAAITSGLAAAARRGALIKGGAALEQLGRVTQVAFDKTGTLTVGKPRVTAIHPATGISESELLTLAAAVEQGATHPLAQAIVREAQVAELAIPTAESQRALVGSGIEAQVNGERVLICAAGKHPADAFTGLINELESAGQTVVLVVRNDDVLGVIALQDTLRADAATAISELNALGVKGVILTGDNPRAAAAIAGELGLEFKAGLLPEDKVKAVTELNQHAPLAMVGDGINDAPAMKAAAIGIAMGSGTDVALETADAALTHNHLRGLVQMIELARATHANIRQNITIALGLKGIFLVTTLLGMTGLWLAVLADTGATVLVTANALRLLRRR
total protein half-life in vivo [1]: 4.91 ± 0.22 h
total protein half-life in vivo [2]: 4.33 ± 0.16 h
total protein half-life in vivo [3]: 4.07 ± 0.092 h
total protein half-life in vivo [12]: 5.05 ± 0.95 h
total protein half-life in vivo [4]: 4.331 ± 0.021 h
total protein half-life in vivo [5]: 2.62 ± 0.26 h
total protein half-life in vivo [6]: 4.55 ± 0.4 h
total protein half-life in vivo [7]: 6.13 ± 1.8 h
total protein half-life in vivo [8]: 3.874 ± 0.016 h
total protein half-life in vivo [9]: 7.59 ± 0.2 h
total protein half-life in vivo [10]: 4.2 ± 0.081 h
total protein half-life in vivo [11]: 7.64 ± 0.21 h

MAKNIQAIRGMNDYLPGETAIWQRIEGTLKNVLGSYGYSEIRLPIVEQTPLFKRAIGEVTDVVEKEMYTFEDRNGDSLTLRPEGTAGCVRAGIEHGLLYNQEQRLWYIGPMFRHERPQKGRYRQFHQLGCEVFGLQGPDIDAELIMLTARWWRALGISEHVTLELNSIGSLEARANYRDALVAFLEQHKEKLDEDCKRRMYTNPLRVLDSKNPEVQALLNDAPALGDYLDEESREHFAGLCKLLESAGIAYTVNQRLVRGLDYYNRTVFEWVTNSLGSQGTVCAGGRYDGLVEQLGGRATPAVGFAMGLERLVLLVQAVNPEFKADPVVDIYLVASGADTQSAAMALAERLRDELPGVKLMTNHGGGNFKKQFARADKWGARVAVVLGESEVANGTAVVKDLRSGEQTAVAQDSVAAHLRTLLG
total protein half-life in vivo [1]: 5.71 ± 1.3 h
total protein half-life in vivo [2]: 5.11 ± 0.23 h
total protein half-life in vivo [3]: 5.44 ± 0.23 h
total protein half-life in vivo [12]: 5.45 ± 0.52 h
total protein half-life in vivo [4]: 4.85 ± 0.12 h
total protein half-life in vivo [5]: 3.17 ± 0.23 h
total protein half-life in vivo [6]: 6.14 ± 0.2 h
total protein half-life in vivo [7]: 10.5 ± 0.68 h
total protein half-life in vivo [8]: 4.8 ± 0.22 h
total protein half-life in vivo [9]: 9.1857 ± 0.0011 h
total protein half-life in vivo [10]: 5.98 ± 0.1 h
total protein half-life in vivo [11]: 13.7 ± 0.34 h
